According to paper PMC7423246, “A Peptide–Lectin Fusion Strategy for Developing a Glycan Probe for Use in Various Assay Formats” (Chemosensors (Basel, Switzerland), 2019):

Target: soy bean agglutinin conjugated to HRP (soy bean), P05046
Assay: ELISA; soy bean agglutinin conjugated to HRP exposed to serial dilutions of PFA; colorimetric signal with TMB

Sequence of soy bean agglutinin conjugated to HRP (soy bean), P05046 (P05046 33-285): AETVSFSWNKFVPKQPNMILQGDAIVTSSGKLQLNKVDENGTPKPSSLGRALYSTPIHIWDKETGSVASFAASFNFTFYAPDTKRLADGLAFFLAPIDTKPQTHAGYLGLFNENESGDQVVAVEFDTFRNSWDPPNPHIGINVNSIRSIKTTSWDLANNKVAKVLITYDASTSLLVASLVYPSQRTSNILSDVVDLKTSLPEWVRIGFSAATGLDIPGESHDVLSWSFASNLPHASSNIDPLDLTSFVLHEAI

B1: Pseudomonas fluorescens agglutinin (PFA) (natural protein)
chain: MSKYAVANQWGGSSAPWHPGGTWVLGARDNQNVVAIEIKSGDGGKSFTGTMTYAGEGPIGFKAQRTGQNQYNVENQWGGNDAPWHPGGKWVIGGRDNQNVIALSVTSSDGGKNLSGTNTYANEGPIGFRGQIEVSHPQAPF
modifications: not checked
Work on B1 yielded a Kd of 4 nM.
